# In patent US20230212319A1, “NOVEL ANTIGEN BINDING DOMAINS AND SYNTHETIC ANTIGEN RECEPTORS INCORPORATING THE SAME” (University of Southern California, priority 2020, published 2023):
# B1: 22243 (protein)
# chain: MALPVTALLLPLALLLHAARPACQDKLTQWPKWLEGTGGGGSGGGGSGGGGSEFDIQMTQSPSSLSASVGDRVTITCKASDHINNWLAWYQQKPGQAPKLLIYGATTLETGVPSRFSGSGSGTDYTLTISSLQPEDFATYYCQQSWNTPWTFGQGTKLEIKRLEDLKNVFPPEVAVFEPSKAEIAHTQKATLVCLATGFYPDHVELSWWVNGKEVHSGVCTDPQPLKEQPALNDSRYCLSSRLRVSATFWQNPRNHFRCQVQFYGLSENDEWTQDRAKPVTQIVSAEAWGRADCGITSASYHQGVLSATILYEILLGKATLYAVLVSALVLMAMVKRKDSRGRAKRSGSGATNFSLLKQAGDVEENPGPTSATMDWIWRILFLVGAATGAHSGPQVQLQESGGGLAQAGGSLRLSCAASGRTFSMGWFRQAPGKEREFVAAITYSGGSPYYASSVRGRFTISRDNAKNTVYLQMNSLKPEDTAVYYCAANPTYGSDWNAENWGQGTQVTVSSGSGGGGSGGGGSGGGGSFEQVQLQQPGAELVKPGASVKMSCKASGYAFSSYWINWMKQKPGQGLEWIGQIYPGDGDTNYNGKFKGRATLTADTSSSTAYMQLSSLTSEDSAVYFCARSITTVVGCAMDYWGQGTSVTVSSTRIQNPDPAVYQLRDSKSSDKSVCLFTDFDSQTNVSQSKDSDVYITDKCVLDMRSMDFKSNSAVAWSNKSDFACANAFNNSIIPEDTFFPSSDVPCDVKLVEKSFETDTNLNFQNLSVIGFRILLLKVAGFNLLMTLRLWSSRAKRSGSGVKQTLNFDLLKLAGDVESNPGPSRGHMTEYKPTVRLATRDDVPRAVRTLAAAFADYPATRHTVDPDRHIERVTELQELFLTRVGLDIGKVWVADDGAAVAVWTTPESVEAGAVFAEIGPRMAELSGSRLAAQQQMEGLLAPHRPKEPAWFLATVGVSPDHQGKGLGSAVVLPGVEAAERAGVPAFLETSAPRNLPFYERLGFTVTADVEVPEGPRTWCMTRKPGA
# B2: 22244 (protein)
# chain: MALPVTALLLPLALLLHAARPDIQMTQSPSSLSASVGDRVTITCKASDHINNWLAWYQQKPGQAPKLLIYGATTLETGVPSRFSGSGSGTDYTLTISSLQPEDFATYYCQQSWNTPWTFGQGTKLEIKRLEDLKNVFPPEVAVFEPSEAEISHTQKATLVCLATGFYPDHVELSWWVNGKEVHSGVCTDPQPLKEQPALNDSRYCLSSRLRVSATFWQNPRNHFRCQVQFYGLSENDEWTQDRAKPVTQIVSAEAWGRADCGFTSESYQQGVLSATILYEILLGKATLYAVLVSALVLMAMVKRKDSRGRAKRSGSGATNFSLLKQAGDVEENPGPTSATMDWIWRILFLVGAATGAHSGPSACPYSNPSLCSGSGGGGSGGGGSGGGGSFEQVQLQQPGAELVKPGASVKMSCKASGYAFSSYWINWMKQKPGQGLEWIGQIYPGDGDTNYNGKFKGRATLTADTSSSTAYMQLSSLTSEDSAVYFCARSITTVVGCAMDYWGQGTSVTVSSTRIQNPDPAVYQLRDSKSSDKSVCLFTDFDSQTNVSQSKDSDVYITDKCVLDMRSMDFKSNSAVAWSNKSDFACANAFNNSIIPEDTFFPSPESSCDVKLVEKSFETDTNLNFQNLSVIGFRILLLKVAGFNLLMTLRLWSSRAKRSGSGVKQTLNFDLLKLAGDVESNPGPSRGHMTEYKPTVRLATRDDVPRAVRTLAAAFADYPATRHTVDPDRHIERVTELQELFLTRVGLDIGKVWVADDGAAVAVWTTPESVEAGAVFAEIGPRMAELSGSRLAAQQQMEGLLAPHRPKEPAWFLATVGVSPDHQGKGLGSAVVLPGVEAAERAGVPAFLETSAPRNLPFYERLGFTVTADVEVPEGPRTWCMTRKPGA
# B3: 22247 (protein)
# chain: MALPVTALLLPLALLLHAARPACPQLGPYELWELSHGTGAVVRGAEFDIQMTQSPSSLSASVGDRVTITCKASDHINNWLAWYQQKPGQAPKLLIYGATTLETGVPSRFSGSGSGTDYTLTISSLQPEDFATYYCQQSWNTPWTFGQGTKLEIKRLEDLKNVFPPEVAVFEPSKAEIAHTQKATLVCLATGFYPDHVELSWWVNGKEVHSGVCTDPQPLKEQPALNDSRYCLSSRLRVSATFWQNPRNHFRCQVQFYGLSENDEWTQDRAKPVTQIVSAEAWGRADCGITSASYHQGVLSATILYEILLGKATLYAVLVSALVLMAMVKRKDSRGRAKRSGSGATNFSLLKQAGDVEENPGPTSATMDWIWRILFLVGAATGAHSGPQVQLQESGGGLAQAGGSLRLSCAASGRTFSMGWFRQAPGKEREFVAAITYSGGSPYYASSVRGRFTISRDNAKNTVYLQMNSLKPEDTAVYYCAANPTYGSDWNAENWGQGTQVTVSSGSGGGGSGGGGSGGGGSFEQVQLQQPGAELVKPGASVKMSCKASGYAFSSYWINWMKQKPGQGLEWIGQIYPGDGDTNYNGKFKGRATLTADTSSSTAYMQLSSLTSEDSAVYFCARSITTVVGCAMDYWGQGTSVTVSSTRIQNPDPAVYQLRDSKSSDKSVCLFTDFDSQTNVSQSKDSDVYITDKCVLDMRSMDFKSNSAVAWSNKSDFACANAFNNSIIPEDTFFPSSDVPCDVKLVEKSFETDTNLNFQNLSVIGFRILLLKVAGFNLLMTLRLWSSRAKRSGSGVKQTLNFDLLKLAGDVESNPGPSRGHMTEYKPTVRLATRDDVPRAVRTLAAAFADYPATRHTVDPDRHIERVTELQELFLTRVGLDIGKVWVADDGAAVAVWTTPESVEAGAVFAEIGPRMAELSGSRLAAQQQMEGLLAPHRPKEPAWFLATVGVSPDHQGKGLGSAVVLPGVEAAERAGVPAFLETSAPRNLPFYERLGFTVTADVEVPEGPRTWCMTRKPGA
# B4: 22248 (protein)
# chain: MALPVTALLLPLALLLHAARPDIQMTQSPSSLSASVGDRVTITCKASDHINNWLAWYQQKPGQAPKLLIYGATTLETGVPSRFSGSGSGTDYTLTISSLQPEDFATYYCQQSWNTPWTFGQGTKLEIKRLEDLKNVFPPEVAVFEPSEAEISHTQKATLVCLATGFYPDHVELSWWVNGKEVHSGVCTDPQPLKEQPALNDSRYCLSSRLRVSATFWQNPRNHFRCQVQFYGLSENDEWTQDRAKPVTQIVSAEAWGRADCGFTSESYQQGVLSATILYEILLGKATLYAVLVSALVLMAMVKRKDSRGRAKRSGSGATNFSLLKQAGDVEENPGPTSATMDWIWRILFLVGAATGAHSGPQLGPYELWELSHGSGPLGIAGIFEQVQLQQPGAELVKPGASVKMSCKASGYAFSSYWINWMKQKPGQGLEWIGQIYPGDGDTNYNGKFKGRATLTADTSSSTAYMQLSSLTSEDSAVYFCARSITTVVGCAMDYWGQGTSVTVSSTRIQNPDPAVYQLRDSKSSDKSVCLFTDFDSQTNVSQSKDSDVYITDKCVLDMRSMDFKSNSAVAWSNKSDFACANAFNNSIIPEDTFFPSPESSCDVKLVEKSFETDTNLNFQNLSVIGFRILLLKVAGFNLLMTLRLWSSRAKRSGSGVKQTLNFDLLKLAGDVESNPGPSRGHMTEYKPTVRLATRDDVPRAVRTLAAAFADYPATRHTVDPDRHIERVTELQELFLTRVGLDIGKVWVADDGAAVAVWTTPESVEAGAVFAEIGPRMAELSGSRLAAQQQMEGLLAPHRPKEPAWFLATVGVSPDHQGKGLGSAVVLPGVEAAERAGVPAFLETSAPRNLPFYERLGFTVTADVEVPEGPRTWCMTRKPGA
# B5: 22211 (protein)
# chain: MALPVTALLLPLALLLHAARPDIQMTQSPSSLSASVGDRVTITCKASDHINNWLAWYQQKPGQAPKLLIYGATTLETGVPSRFSGSGSGTDYTLTISSLQPEDFATYYCQQSWNTPWTFGQGTKLEIKRLEDLKNVFPPEVAVFEPSEAEISHTQKATLVCLATGFYPDHVELSWWVNGKEVHSGVCTDPQPLKEQPALNDSRYCLSSRLRVSATFWQNPRNHFRCQVQFYGLSENDEWTQDRAKPVTQIVSAEAWGRADCGFTSESYQQGVLSATILYEILLGKATLYAVLVSALVLMAMVKRKDSRGRAKRSGSGATNFSLLKQAGDVEENPGPTSATMDWIWRILFLVGAATGAHSGPQLGPYELWELSHGSGGGGSGGGGSGGGGSFEQVQLQQPGAELVKPGASVKMSCKASGYAFSSYWINWMKQKPGQGLEWIGQIYPGDGDTNYNGKFKGRATLTADTSSSTAYMQLSSLTSEDSAVYFCARSITTVVGCAMDYWGQGTSVTVSSTRIQNPDPAVYQLRDSKSSDKSVCLFTDFDSQTNVSQSKDSDVYITDKCVLDMRSMDFKSNSAVAWSNKSDFACANAFNNSIIPEDTFFPSPESSCDVKLVEKSFETDTNLNFQNLSVIGFRILLLKVAGFNLLMTLRLWSSRAKRSGSGVKQTLNFDLLKLAGDVESNPGPSRGHMTEYKPTVRLATRDDVPRAVRTLAAAFADYPATRHTVDPDRHIERVTELQELFLTRVGLDIGKVWVADDGAAVAVWTTPESVEAGAVFAEIGPRMAELSGSRLAAQQQMEGLLAPHRPKEPAWFLATVGVSPDHQGKGLGSAVVLPGVEAAERAGVPAFLETSAPRNLPFYERLGFTVTADVEVPEGPRTWCMTRKPGA
# B6: 22214 (protein)
# chain: MALPVTALLLPLALLLHAARPACPYINIYNAEPANPSEKNSPTQYAYGTGPQGIFGQPGYINEFDIQMTQSPSSLSASVGDRVTITCKASDHINNWLAWYQQKPGQAPKLLIYGATTLETGVPSRFSGSGSGTDYTLTISSLQPEDFATYYCQQSWNTPWTFGQGTKLEIKRLEDLKNVFPPEVAVFEPSKAEIAHTQKATLVCLATGFYPDHVELSWWVNGKEVHSGVCTDPQPLKEQPALNDSRYCLSSRLRVSATFWQNPRNHFRCQVQFYGLSENDEWTQDRAKPVTQIVSAEAWGRADCGITSASYHQGVLSATILYEILLGKATLYAVLVSALVLMAMVKRKDSRGRAKRSGSGATNFSLLKQAGDVEENPGPTSATMDWIWRILFLVGAATGAHSGPQVQLQESGGGLAQAGGSLRLSCAASGRTFSMGWFRQAPGKEREFVAAITYSGGSPYYASSVRGRFTISRDNAKNTVYLQMNSLKPEDTAVYYCAANPTYGSDWNAENWGQGTQVTVSSGSGGGGSGGGGSGGGGSFEQVQLQQPGAELVKPGASVKMSCKASGYAFSSYWINWMKQKPGQGLEWIGQIYPGDGDTNYNGKFKGRATLTADTSSSTAYMQLSSLTSEDSAVYFCARSITTVVGCAMDYWGQGTSVTVSSTRIQNPDPAVYQLRDSKSSDKSVCLFTDFDSQTNVSQSKDSDVYITDKCVLDMRSMDFKSNSAVAWSNKSDFACANAFNNSIIPEDTFFPSSDVPCDVKLVEKSFETDTNLNFQNLSVIGFRILLLKVAGFNLLMTLRLWSSRAKRSGSGVKQTLNFDLLKLAGDVESNPGPSRGHMTEYKPTVRLATRDDVPRAVRTLAAAFADYPATRHTVDPDRHIERVTELQELFLTRVGLDIGKVWVADDGAAVAVWTTPESVEAGAVFAEIGPRMAELSGSRLAAQQQMEGLLAPHRPKEPAWFLATVGVSPDHQGKGLGSAVVLPGVEAAERAGVPAFLETSAPRNLPFYERLGFTVTADVEVPEGPRTWCMTRKPGA
# System: RAJI cells
# Test: JNG assay, co-culture with RAJI cells
# Assay type: cell-based
# Conditions: JNG cells expressing construct, co-culture with Raji
# Outline: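 Read-out is NFAT-driven GFP measured by flow cytometry after ~4–18 h co-culture of SAR-expressing JNG cells with target cells (E:T about 1:2). SARs were introduced by lentiviral spinfection and selected with puromycin or blasticidin when possible; scores (+/- to 5+ ≈ 5–50% GFP+) are relative to parental JNG cells.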
row,Molecule,NFAT-GFP ASSAY: Raji
1,B1,"Raji (3+) (refer to approximately 5%, 10%, 20%, 30%, 40% and 50% GFP positive cells)"
2,B2,"Raji (+/-) (refer to approximately 5%, 10%, 20%, 30%, 40% and 50% GFP positive cells)"
3,B3,"Raji (2+) (refer to approximately 5%, 10%, 20%, 30%, 40% and 50% GFP positive cells)"
4,B4,"Raji (3+) (refer to approximately 5%, 10%, 20%, 30%, 40% and 50% GFP positive cells)"
5,B5,"2+ (refer to approximately 5%, 10%, 20%, 30%, 40% and 50% GFP positive cells)"
6,B6,"Raji (+) (refer to approximately 5%, 10%, 20%, 30%, 40% and 50% GFP positive cells)"
